Source: US20070111265A1, “Ligands for mineralocorticoid receptor (MR) and methods for screening for or designing MR ligands” (Van Andel Research Institute, priority 2005, published 2007)

What was measured:
[1] = biological target: VP16-MR LBD (residues 727-984) (human) (UniProt P08235); experiment: cell-based or functional assay
[2] = biological target: VP16-MR LBD (K782E) (human) (UniProt P08235); experiment: cell-based or functional assay
Chain of VP16-MR LBD (K782E) (human) (P08235 727-984 K782E): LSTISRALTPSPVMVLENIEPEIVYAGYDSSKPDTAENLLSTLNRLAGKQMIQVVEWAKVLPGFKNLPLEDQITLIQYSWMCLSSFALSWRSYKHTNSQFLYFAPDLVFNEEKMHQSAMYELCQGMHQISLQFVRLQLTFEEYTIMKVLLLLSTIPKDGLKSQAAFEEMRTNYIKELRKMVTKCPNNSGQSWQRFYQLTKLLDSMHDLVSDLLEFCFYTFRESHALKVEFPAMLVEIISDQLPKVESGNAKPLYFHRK

Chain of VP16-MR LBD (residues 727-984) (human) (P08235 727-984 limits assumed): as the sequence (P08235 727-984 K782E) above, with E56K counted along it

With “Gal4-SRC1-4 (GAL4-DBD fused with SRC1 residues 1240-1441) (from UniProt P04386 1-147; Q15788 1240-1441)” the activation of the reporter driven by the GAL4 DNA-binding sites (mammalian two hybrid, luciferase) [1] was 7 fold and the activation of the reporter driven by the GAL4 DNA-binding sites (mammalian two hybrid, luciferase) [2] was 1.7 fold.
